Measurements: paper PMC5884693 (Cell, 2018)

Molecular target: the molecule itself
Assay: negative stain EM

B1: Drosophila Arc homologue dArc1 (natural protein, UniProt Q7K1U0 1-254, looked up)
chain: MAQLTQMTNEQLRELIEAVRAAAVGAAGSAAAAGGADASRGKGNFSACTHSFGGTRDHDVVEEFIGNIETYKDVEGISDENALKGISLLFYGMASTWWQGVRKEATTWKEAIALIREHFSPTKPAYQIYMEFFQNKQDDHDPIDTFVIQKRALLAQLPSGRHDEETELDLLFGLLNIKYRKHISRHSVHTFKDLLEQGRIIEHNNQEDEEQLATAKNTRGSKRTTRCTYCSFRGHTFDNCRKRQKDRQEEQHEE
- binding result: binds
